Experimental data published in IntAct's records for PubMed 20153263.

B1: Protein AF-9 (Homo sapiens), P42568 (parent)
chain: MASSCAVQVKLELGHRAQVRKKPTVEGFTHDWMVFVRGPEHSNIQHFVEKVVFHLHESFPRPKRVCKDPPYKVEESGYAGFILPIEVYFKNKEEPRKVRFDYDLFLHLEGHPPVNHLRCEKLTFNNPTEDFRRKLLKAGGDPNRSIHTSSSSSSSSSSSSSSSSSSSSSSSSSSSSSSSSSSSSSSSSSSTSFSKPHKLMKEHKEKPSKDSREHKSAFKEPSRDHNKSSKESSKKPKENKPLKEEKIVPKMAFKEPKPMSKEPKPDSNLLTITSGQDKKAPSKRPPISDSEELSAKKRKKSSSEALFKSFSSAPPLILTCSADKKQIKDKSHVKMGKVKIESETSEKKKSTLPPFDDIVDPNDSDVEENISSKSDSEQPSPASSSSSSSSSFTPSQTRQQGPLRSIMKDLHSDDNEEESDEVEDNDNDSEMERPVNRGGSRSRRVSLSDGSDSESSSASSPLHHEPPPPLLKTNNNQILEVKSPIKQSKSDKQIKNGECDKAYLDELVELHRRLMTLRERHILQQIVNLIEETGHFHITNTTFDFDLCSLDKTTVRKLQSYLETSGTS
B2: Protein ENL (Homo sapiens), Q03111 (parent)
chain: MDNQCTVQVRLELGHRAQLRKKPTTEGFTHDWMVFVRGPEQCDIQHFVEKVVFWLHDSFPKPRRVCKEPPYKVEESGYAGFIMPIEVHFKNKEEPRKVCFTYDLFLNLEGNPPVNHLRCEKLTFNNPTTEFRYKLLRAGGVMVMPEGADTVSRPSPDYPMLPTIPLSAFSDPKKTKPSHGSKDANKESSKTSKPHKVTKEHRERPRKDSESKSSSKELEREQAKSSKDTSRKLGEGRLPKEEKAPPPKAAFKEPKMALKETKLESTSPKGGPPPPPPPPPRASSKRPATADSPKPSAKKQKKSSSKGSRSAPGTSPRTSSSSSFSDKKPAKDKSSTRGEKVKAESEPREAKKALEVEESNSEDEASFKSESAQSSPSNSSSSSDSSSDSDFEPSQNHSQGPLRSMVEDLQSEESDEDDSSSGEEAAGKTNPGRDSRLSFSDSESDNSADSSLPSREPPPPQKPPPPNSKVSGRRSPESCSKPEKILKKGTYDKAYTDELVELHRRLMALRERNVLQQIVNLIEETGHFNVTNTTFDFDLFSLDETTVRKLQSCLEAVAT
B3: Protein AF-9 (Homo sapiens), P42568 (parent)
chain: B1 chain
partner: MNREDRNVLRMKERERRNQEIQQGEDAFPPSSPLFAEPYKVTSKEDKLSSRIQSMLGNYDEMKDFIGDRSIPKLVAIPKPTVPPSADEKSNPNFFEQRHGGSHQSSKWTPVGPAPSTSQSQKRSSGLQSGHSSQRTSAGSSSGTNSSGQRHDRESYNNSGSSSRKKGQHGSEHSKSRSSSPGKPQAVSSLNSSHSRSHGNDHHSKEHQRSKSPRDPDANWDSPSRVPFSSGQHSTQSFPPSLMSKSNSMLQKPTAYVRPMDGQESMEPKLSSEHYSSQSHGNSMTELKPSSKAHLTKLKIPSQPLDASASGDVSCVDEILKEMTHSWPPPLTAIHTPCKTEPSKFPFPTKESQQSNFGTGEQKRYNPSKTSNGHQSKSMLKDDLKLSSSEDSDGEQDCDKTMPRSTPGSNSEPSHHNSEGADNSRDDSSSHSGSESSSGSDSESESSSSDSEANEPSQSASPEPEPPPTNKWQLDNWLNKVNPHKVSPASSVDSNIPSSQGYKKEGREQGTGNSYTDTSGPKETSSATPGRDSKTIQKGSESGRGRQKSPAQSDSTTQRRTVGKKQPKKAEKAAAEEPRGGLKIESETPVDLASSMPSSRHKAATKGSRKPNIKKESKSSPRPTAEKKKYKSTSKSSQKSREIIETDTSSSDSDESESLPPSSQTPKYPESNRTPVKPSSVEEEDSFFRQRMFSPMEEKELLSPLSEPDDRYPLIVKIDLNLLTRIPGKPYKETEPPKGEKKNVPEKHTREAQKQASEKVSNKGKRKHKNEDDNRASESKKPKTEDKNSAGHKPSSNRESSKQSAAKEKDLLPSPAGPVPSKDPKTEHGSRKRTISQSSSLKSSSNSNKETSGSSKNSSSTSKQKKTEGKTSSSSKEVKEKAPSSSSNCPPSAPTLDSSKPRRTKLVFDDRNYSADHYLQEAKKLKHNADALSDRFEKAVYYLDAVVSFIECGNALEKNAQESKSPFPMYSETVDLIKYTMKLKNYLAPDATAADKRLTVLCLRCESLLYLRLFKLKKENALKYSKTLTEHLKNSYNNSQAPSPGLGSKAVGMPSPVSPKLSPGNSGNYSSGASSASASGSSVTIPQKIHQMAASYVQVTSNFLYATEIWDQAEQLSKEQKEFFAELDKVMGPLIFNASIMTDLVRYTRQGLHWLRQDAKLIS
B4: Protein ENL (Homo sapiens), Q03111 (parent)
chain: B2 chain
partner: B3 partner

Variants of: B1
Settings: with dot1l_human DOT1L

L558E was tested. Which “effect of a mutation on the interaction” value did it give?
Its value is “decreasing interaction”.

Variants of: B2
Settings: with dot1l_human DOT1L

Which “effect of a mutation on the interaction” value does the source give for L550E here?
The value was “decreasing interaction”.

Variants of: B3
Settings: with aff4_human AFF4, Q9UHB7

How did the “effect of a mutation on the interaction” value turn out when L558E was run?
Its value is “decreasing interaction”.

Variants of: B4
Settings: with aff4_human AFF4, Q9UHB7

With L550E as the variant, how does the “effect of a mutation on the interaction” value read?
Its value is “disrupting interaction”.
